B1: Abl interactor 2 (Homo sapiens), Q9NYB9 (parent)
chain: MAELQMLLEEEIPGGRRALFDSYTNLERVADYCENNYIQSADKQRALEETKAYTTQSLASVAYLINTLANNVLQMLDIQASQLRRMESSINHISQTVDIHKEKVARREIGILTTNKNTSRTHKIIAPANLERPVRYIRKPIDYTILDDIGHGVKWLLRFKVSTQNMKMGGLPRTTPPTQKPPSPPMSGKGTLGRHSPYRTLEPVRPPVVPNDYVPSPTRNMAPSQQSPVRTASVNQRNRTYSSSGSSGGSHPSSRSSSRENSGSGSVGVPIAVPTPSPPSVFPAPAGSAGTPPLPATSASAPAPLVPATVPSSTAPNAAAGGAPNLADGFTSPTPPVVSSTPPTGHPVQFYSMNRPASRHTPPTIGGSLPYRRPPSITSQTSLQNQMNGGPFYSQNPVSDTPPPPPPVEEPVFDESPPPPPPPEDYEEEEAAVVEYSDPYAEEDPPWAPRSYLEKVVAIYDYTKDKEDELSFQEGAIIYVIKKNDDGWYEGVMNGVTGLFPGNYVESIMHYSE
partner: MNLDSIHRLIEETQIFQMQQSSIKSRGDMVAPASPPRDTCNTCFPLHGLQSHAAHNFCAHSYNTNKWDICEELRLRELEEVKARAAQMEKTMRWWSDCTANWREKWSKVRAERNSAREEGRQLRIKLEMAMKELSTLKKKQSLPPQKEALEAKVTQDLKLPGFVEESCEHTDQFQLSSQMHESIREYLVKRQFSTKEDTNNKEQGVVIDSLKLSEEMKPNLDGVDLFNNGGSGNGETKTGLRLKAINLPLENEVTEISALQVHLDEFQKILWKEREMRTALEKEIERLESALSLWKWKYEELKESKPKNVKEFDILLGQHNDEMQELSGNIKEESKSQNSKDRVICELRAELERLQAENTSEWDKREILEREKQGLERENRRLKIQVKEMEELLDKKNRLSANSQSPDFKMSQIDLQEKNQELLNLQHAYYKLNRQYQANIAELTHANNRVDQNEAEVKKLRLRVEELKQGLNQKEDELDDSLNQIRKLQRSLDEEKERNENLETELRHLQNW
B2: Abl interactor 2 (Homo sapiens), Q9NYB9 (parent)
chain: B1 chain
partner: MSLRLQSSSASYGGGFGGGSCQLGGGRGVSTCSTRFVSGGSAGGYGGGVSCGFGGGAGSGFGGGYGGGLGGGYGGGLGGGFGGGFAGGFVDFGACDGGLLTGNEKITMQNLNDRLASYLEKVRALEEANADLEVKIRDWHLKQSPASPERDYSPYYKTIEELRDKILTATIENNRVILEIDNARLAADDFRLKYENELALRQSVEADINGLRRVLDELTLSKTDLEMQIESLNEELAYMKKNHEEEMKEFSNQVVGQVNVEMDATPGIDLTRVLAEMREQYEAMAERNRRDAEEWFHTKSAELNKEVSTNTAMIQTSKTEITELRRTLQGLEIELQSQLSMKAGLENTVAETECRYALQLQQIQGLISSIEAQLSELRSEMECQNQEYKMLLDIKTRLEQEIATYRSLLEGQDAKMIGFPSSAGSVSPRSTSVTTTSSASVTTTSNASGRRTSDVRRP
B3: Rho guanine nucleotide exchange factor 3 (Homo sapiens), Q9NR81 (parent)
chain: MVAKDYPFYLTVKRANCSLELPPASGPAKDAEEPSNKRVKPLSRVTSLANLIPPVKATPLKRFSQTLQRSISFRSESRPDILAPRPWSRNAAPSSTKRRDSKLWSETFDVCVNQMLTSKEIKRQEAIFELSQGEEDLIEDLKLAKKAYHDPMLKLSIMTEQELNQIFGTLDSLIPLHEELLSQLRDVRKPDGSTEHVGPILVGWLPCLSSYDSYCSNQVAAKALLDHKKQDHRVQDFLQRCLESPFSRKLDLWNFLDIPRSRLVKYPLLLREILRHTPNDNPDQQHLEEAINIIQGIVAEINTKTGESECRYYKERLLYLEEGQKDSLIDSSRVLCCHGELKNNRGVKLHVFLFQEVLVITRAVTHNEQLCYQLYRQPIPVKDLLLEDLQDGEVRLGGSLRGAFSNNERIKNFFRVSFKNGSQSQTHSLQANDTFNKQQWLNCIRQAKETVLCAAGQAGVLDSEGSFLNPTTGSRELQGETKLEQMDQSDSESDCSMDTSEVSLDCERMEQTDSSCGNSRHGESNV
B4: CGG triplet repeat-binding protein 1 (Homo sapiens), Q9UFW8 (parent)
chain: MERFVVTAPPARNRSKTALYVTPLDRVTEFGGELHEDGGKLFCTSCNVVLNHVRKSAISDHLKSKTHTKRKAEFEEQNVRKKQRPLTASLQCNSTAQTEKVSVIQDFVKMCLEANIPLEKADHPAVRAFLSRHVKNGGSIPKSDQLRRAYLPDGYENENQLLNSQDC
partner: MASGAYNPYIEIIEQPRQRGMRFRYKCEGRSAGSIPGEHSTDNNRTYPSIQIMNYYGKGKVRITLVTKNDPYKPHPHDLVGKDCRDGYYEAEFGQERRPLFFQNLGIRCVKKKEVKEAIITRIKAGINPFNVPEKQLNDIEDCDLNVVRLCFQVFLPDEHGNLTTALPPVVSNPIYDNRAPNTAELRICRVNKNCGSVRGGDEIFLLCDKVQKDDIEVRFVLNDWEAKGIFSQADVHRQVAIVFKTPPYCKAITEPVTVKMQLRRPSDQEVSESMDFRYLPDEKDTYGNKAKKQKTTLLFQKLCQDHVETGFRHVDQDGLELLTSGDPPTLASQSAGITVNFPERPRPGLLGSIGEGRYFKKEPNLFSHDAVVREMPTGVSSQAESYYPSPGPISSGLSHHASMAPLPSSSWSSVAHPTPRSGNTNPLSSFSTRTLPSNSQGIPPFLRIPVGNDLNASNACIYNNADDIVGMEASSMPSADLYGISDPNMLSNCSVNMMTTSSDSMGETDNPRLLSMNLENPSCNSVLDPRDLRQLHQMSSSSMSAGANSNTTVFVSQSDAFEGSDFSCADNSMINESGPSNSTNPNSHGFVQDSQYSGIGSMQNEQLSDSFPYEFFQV

Variants of: B1
Conditions: with CCDC102B

| effect of a mutation on the interaction | Variant |
| --- | --- |
| with no effect | R373C |

Variants of: B2
Conditions: with KRT13, P13646

| effect of a mutation on the interaction | Variant |
| --- | --- |
| with no effect | R373C |

Variants of: B2
Conditions: with KRT13, P13646
Remark: another data set of the same source

| effect of a mutation on the interaction | Variant |
| --- | --- |
| with no effect | E202K |

Variants of: B3
Conditions: with tri23_human TRIM23, P36406
Sequence of tri23_human TRIM23, P36406 (P36406 whole entry): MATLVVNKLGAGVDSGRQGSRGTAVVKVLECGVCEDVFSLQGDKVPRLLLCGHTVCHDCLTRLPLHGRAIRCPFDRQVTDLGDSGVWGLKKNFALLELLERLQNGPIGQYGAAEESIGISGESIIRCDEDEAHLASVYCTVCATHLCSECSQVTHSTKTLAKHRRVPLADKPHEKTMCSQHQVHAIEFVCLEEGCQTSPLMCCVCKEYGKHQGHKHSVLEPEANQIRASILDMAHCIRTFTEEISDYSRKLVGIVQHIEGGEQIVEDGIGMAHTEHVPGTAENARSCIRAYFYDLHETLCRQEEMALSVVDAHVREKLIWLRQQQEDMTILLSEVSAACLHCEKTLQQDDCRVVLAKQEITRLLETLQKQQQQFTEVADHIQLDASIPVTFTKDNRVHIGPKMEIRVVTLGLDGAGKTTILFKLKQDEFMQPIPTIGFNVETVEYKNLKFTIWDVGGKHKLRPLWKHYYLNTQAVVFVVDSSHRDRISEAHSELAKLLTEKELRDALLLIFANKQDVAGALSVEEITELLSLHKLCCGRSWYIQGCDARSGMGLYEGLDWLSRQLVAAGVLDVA

| effect of a mutation on the interaction | Variant |
| --- | --- |
| with no effect | P34S |

Variants of: B4
Conditions: with rel_human REL

| effect of a mutation on the interaction | Variant |
| --- | --- |
| disrupting interaction strength | R54C |

— IntAct's records for PubMed 29892012
